Assays:
[1] = biological target: T1, NY-ESO-1/LAGE-1 peptide on HLA-A*02:01 (human); test: multimer staining
T1 peptide: SLLMWITQC

[2] = biological target: T2, NY-ESO-1 peptide on HLA-A*02:01 (human); test: cytokine release
T2 peptide: RLLEFYLAM

[3] = biological target: T3, NY-ESO-1 peptide on HLA-A*02:01 (human); test: cytokine release
T3 peptide: FTVSGNILTI

B1: T11.8-10-17 (TCR, V domains shown)
Valpha: QKEVEQNSGPLSVPEGAIASLNCTYSDRGSQSFFWYRQYSGKSPELIMFIYSNGDKEDGRFTAQLNKASQYVSLLIRDSQPSDSATYLCAADDKIIFGKGTRLHILP
Vbeta: DAGVIQSPRHEVTEMGQEVTLRCKPISGHDYLFWYRQTMMRGLELLIYFNNNVPIDDSGMPEDRFSAKMPNASFSTLKIQPSEPRDSAVYFCASSRGGSGYTFGSGTRLTVV
- binding result [1]: recognises
- binding result [2]: no recognition
- binding result [3]: no recognition

Reference: patent US20240417440A1 (published 2024)
